The test addresses RpL26-eGFP (UniProt P61254). The test can be described thus: fluorescence cross-correlation spectroscopy (FCCS); live HeLa cells co-transfected with the two labelled proteins, two-photon excitation at 1020 nm, green and red channels, cytoplasm.

NCp7-mCherry (natural protein) registered a percent of NCp7-mCherry molecules that cross-correlate with RpL26-eGFP of 40 to 70%.

Source of the values: publication PMC4344342.
